The target in series [1] is L-arabinose isomerase from Lactobacillus reuteri DSMZ 17509 (Lactobacillus reuteri). In words: SEC; 190 mL Sephacryl S300 column, 50 mM potassium phosphate buffer pH 7.0, 150 mM NaCl; molecular weight marker kit for gel filtration; oligomer size from the apparent mass against the calculated subunit mass.
Series [2] deals with the molecule itself. The series is described as above.

Take “L-arabinose isomerase from Lactobacillus reuteri DSMZ 17509 (enzyme)”: in series [1], the stoichiometry N (as a rule, a count of units in the complex or per binding partner) is 6.

B1: D-xylose isomerase from Lactobacillus reuteri DSMZ 17509 (enzyme, UniProt Q5QG16 1-449, looked up)
chain: MADLWNNIDKIEYEGPHKSIKSGLFYQYYNPDEVILGKKMKDWLRFSVAYWHTFDQRLVDPFGDGTAQRPYDKYSDPMDCALAKVDYAFEFYNKLGVDFLCFHDRDLAPEGDTLRETNKNLDRVVDKIVEYQKATGMKVLWNTSNLFTNPRFLEGAGTAPSAEIYAYAAAQLKHSLEVGKRVGSENYVFWGGREGYESLWNTDMKREQSHIAKFFHMAKDYANEIGFDAQMLLEPKPKEPTTHQYDFDAATTINFMCEYGLDKDFKLNLEGNHANLAGHTYQHEIRVAREAGLLGSLDANQGDKLIGWDIDEYPSNLYETTAAMWEVIQNGSIGPRGGLNFDAKPRRTSFKPVDLFYGHIVGMDSFAAGLRVAAAMKEDGFLDDIIKERYSTWDEGLGKSIEDGNENFASLEEKVIDTPQSELLAATHSDHLEEIKDTINHYMIETLAK
For B1, the “stoichiometry N” value in series [2] was 4.
